Experimental data from patent US20190314452A1 (YUHAN, published 2019).

B1: DFD23 (Fc fusion)
chain: HGEGTFTSDVSSYLEGQAAKEFIAWLVKGRGEKEKEEQEERETKTPECPSHTQPLGVFLFPPKPKDTLMISRTPEVTCVVVDVSQEDPEVQFNWYVDGVEVHNAKTKPREEQFNSTYRVVSVLTVLHQDWLNGKEYKCKVSNKGLPSSIEKTISKAKGQPREPQVYTLPPSQEEMTKNQVSLTCLVKGFYPSDIAVEWESNGQPENNYKTTPPVLDSDGSFFLYSRLTVDKSRWQEGNVFSCSVMHEALHNHYTQKSLSLSLGKGGGGSGGGGSGGGGSHPIPDSSPLLQFGGQVRQRYLYTDDAQQTEAHLEIREDGTVGGAADQSPESLLQLKALKPGVIQILGVKTSRFLCQRPDGALYGSLHFDPEACSFREEIRPDGYNVYQSEAHGLPLHLPGNKSPHRDPAPRGPARFLPLPGLPPALPEPPGILAPQPPDVGSSDPLSMVTGLEAVRSPSYAS
B2: DFD59: GLP1(GEG)-HyFc40 (Fc fusion)
chain: HGEGTFTSDVSSYLEEQAAKEFIAWLVKGGGEKEKEEQEERETKTPECPSHTQPLGVFLFPPKPKDTLMISRTPEVTCVVVDVSQEDPEVQFNWYVDGVEVHNAKTKPREEQFNSTYRVVSVLTVLHQDWLNGKEYKCKVSNKGLPSSIEKTISKAKGQPREPQVYTLPPSQEEMTKNQVSLTCLVKGFYPSDIAVEWESNGQPENNYKTTPPVLDSDGSFFLYSRLTVDKSRWQEGNVFSCSVMHEALHNHYTQKSLSLSLGK

Molecular target: human GLP-1 receptor (human, UniProt P43220 24-463)
Assay: cell-based or functional assay

Row | Binder | in vitro GLP-1 activity (intracellular cAMP, EC50 compared)
1 | B1 | 2 to 3 times lower than the fusion proteins containing other GLP-1 mutant sequences
2 | B2 | ~2 times higher than DFD69, DFD112 and DFD114
